Results as given in article doi:10.1101/2025.02.03.636288.

Target: MBP-CARD9 (human) (UniProt Q9H257)
Assay: other fluorescence titration

MBP-CARD9 (human), sequence (Q9H257 whole entry): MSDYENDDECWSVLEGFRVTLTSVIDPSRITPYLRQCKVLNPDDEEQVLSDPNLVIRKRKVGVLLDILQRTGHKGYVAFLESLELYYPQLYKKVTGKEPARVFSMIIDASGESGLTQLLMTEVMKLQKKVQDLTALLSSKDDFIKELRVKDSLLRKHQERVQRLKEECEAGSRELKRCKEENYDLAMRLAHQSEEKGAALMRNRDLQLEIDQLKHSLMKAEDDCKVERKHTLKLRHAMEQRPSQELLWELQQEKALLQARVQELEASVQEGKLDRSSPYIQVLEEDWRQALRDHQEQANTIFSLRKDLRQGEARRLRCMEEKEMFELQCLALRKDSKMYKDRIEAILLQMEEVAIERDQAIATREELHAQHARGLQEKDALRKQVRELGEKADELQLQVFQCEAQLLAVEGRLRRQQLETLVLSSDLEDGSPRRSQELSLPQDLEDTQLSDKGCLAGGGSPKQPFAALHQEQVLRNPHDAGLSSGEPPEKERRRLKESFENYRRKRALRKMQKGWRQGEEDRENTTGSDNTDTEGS

Q: Which Kd does the source give for “CK2 complex (New England Bio, P6010L) (from UniProt P68400 1-391; P67870 1-215)” here?
A: 300 nM
